Patent US20210214449A1 (ZOETIS SERVICES, published 2021)
Residue numbers refer to the chain shown, from its start. Read-outs that look alike come from different tables or passages of the source.

Key:
[1] = biological target: T1, canine NGF (canine, UniProt Q29074 110-229 (pig entry), limits assumed); test: cell-based or functional assay
T1 chain: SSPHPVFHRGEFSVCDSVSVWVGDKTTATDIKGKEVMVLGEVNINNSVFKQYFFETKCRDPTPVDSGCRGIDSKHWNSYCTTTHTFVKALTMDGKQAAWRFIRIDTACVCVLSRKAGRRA

[2] = biological target: T1, canine NGF; test: cell-based or functional assay
[3] = biological target: T1, canine NGF; test: cell-based or functional assay
[4] = biological target: human NGF (human) (UniProt P01138); test: SPR (Biacore T200), 100 nM mAb on NGF chip, vs parent mAb
Sequence of human NGF (human) (P01138 other isoform, or with tags, fused parts or gaps limits assumed): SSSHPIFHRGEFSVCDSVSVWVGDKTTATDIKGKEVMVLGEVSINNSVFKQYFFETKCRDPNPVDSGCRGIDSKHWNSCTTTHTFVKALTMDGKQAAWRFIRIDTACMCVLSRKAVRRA

[5] = biological target: rat NGF (rat) (UniProt P25427); test: as above
Sequence of rat NGF (rat) (P25427 122-241 limits assumed): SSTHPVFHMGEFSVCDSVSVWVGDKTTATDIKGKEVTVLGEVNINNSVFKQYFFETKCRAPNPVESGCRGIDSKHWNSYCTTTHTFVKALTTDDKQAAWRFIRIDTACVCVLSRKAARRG

B1: ZTS-842 (antibody, V domains shown)
VH: EVQLVESGGDLVKPGGSLRLSCVASGFTFSTYGINWVRQAPGKGLQWVAYISSGGSSTYYADPVKGRFTISRDDAKNMLYLQMNSLRAEDTAIYYCAGSRYTYAYGGGYEFHFWGQGTLVTVSS
VL: QAVLNQPASVSGALGQKVTISCSGSTMDIDIFGVSWYQQLPGKAPKLLVDSDGDRPSGIPDRFSGSRSGNSGTLTITGLQAEDEADYHCQSGDSTLGALAIFGGGTHVTVL
B1 was tested, and the “IC50 (read off the curve), canine NGF-induced pERK-1/2 in caTrkA-CHO cells” value [1] was roughly 0.1 µg/ml and the “IC50 (read off the curve), canine NGF-induced TF-1 cell proliferation” value [2] was roughly 5 ng/mL.

B2: fel48L2 1.1 (antibody, V domains shown)
VH: B1 VH with E1D, S21T, D74N, S85N, R87K, A88T, I93T
VL: QAVLNQPSSVSGALGQRVTISCSGSTMDIDIFGVSWYQQIPGMAPKTIIDSDGDRPSGVPDRFSGSKSGSTGTLTITGLQAEDEADYYCQSGDSTLGALAIFGGGTHVTVLG
In the case of B2, the “IC50 (read off the curve), canine NGF-induced TF-1 cell proliferation” value [3] is reported as roughly 7 ng/mL.

B3: can9L12VH_K98A (antibody, V domains shown)
VH: EVQLVESGGDLVKPGGSLRLSCVASGFTFSSHGMHWVRQSPGKGLQWVAVINSGGSSTYYTDAVKGRFTISRDNAKNTVYLQMNSLRAEDTAMYYCAAESVGGWEQLVGPHFDYWGQGTLVIVSS
VL: QSVLTQPTSVSGSLGQRVTISCSGSTNNIGILGASWYQLFPGKAPKLLVYGNGNRPSGVPDRFSGADSGDSVTLTITGLQAEDEADYYCQSFDTTLGAHVFGGGTHLTVL
B3 was tested, and the Percent Similarity Score (%) [4] was 8.58% and the Percent Similarity Score (%) [5] was 7.92%.

B4: can9L12VH_W104A (antibody, V domains shown)
VH: B3 VH with A98K, W104A
VL: B3 VL
B4 gave a Percent Similarity Score (%) [5] of 8.2%.

B5: ZTS-841 (antibody, V domains shown)
VH: B3 VH with A98K
VL: B3 VL
With B5 the “IC50 (read off the curve), canine NGF-induced pERK-1/2 in caTrkA-CHO cells” value [1] was roughly 0.2 µg/ml and the “IC50 (read off the curve), canine NGF-induced TF-1 cell proliferation” value [2] was roughly 8 ng/mL.

B6: can9L12VH_V101A (antibody, V domains shown)
VH: B3 VH with A98K, V101A
VL: B3 VL
B6 showed a Percent Similarity Score (%) [4] of 5.29%.

B7: can9L12VH_F112A (antibody, V domains shown)
VH: B3 VH with A98K, F112A
VL: B3 VL
In the case of B7, the Percent Similarity Score (%) [4] is reported as 8%.
